Laboratory results reported in US12428627B2, “Mutant p-hydroxyphenylpyruvate dioxygenase, and coding nucleic acid and use thereof” (Qingdao Kingagroot Chemical Compound Co., Ltd., priority 2018, dated 2025).

Columns and labels:
rice HPPD (OsHPPD) = test: Color reaction of recombinant E. coli expressing wild-type or mutant rice HPPD, cultured in 96-well plate in medium containing an HPPD-inhibiting herbicide and tyrosine; assay type: cell-based, Oryza sativa; settings: compound 101
Excerpt: The rice full-length OsHPPD enzyme has 446 amino acids and its amino acid sequence is set forth in SEQ ID NO: 2, wherein the amino acids 1-50 are considered to constitute a signal peptide which is responsible for directing into chloroplast (Siehl et al. Plant Physiol. 2014 November; 166(3): 1162-1176). Therefore, from the amino acid at the 51-position to the amino acid at the […], a saturated random mutation was made for each amino acid. This was achieved by performing a bridge PCR by using a primer containing a coding sequence of an amino acid to be mutated into NNK and another suitable conventional primer. In NNK, N represented A/T/G/C and K represented G/T, and the NNK codon could encode any one of 20 amino acids or terminators. Accordingly, this was a saturated mutation. Please see: Kille S. Acevedo-Rocha C G, Parra L P, Zhang Z G, Opperman D J, Reetz M T, Acevedo J P (2013) Reducing codon redundancy and screening effort of combinatorial protein libraries created by saturation mutagenesis. ACS Synth Biol 2(2):83-92; Directed Evolution Library Creation: methods and protocols 2nd ed. Edited by Elizabeth M. J. Gillam, Janine N. Copp and David F. Ackerley New York, NY United States: Springer, 2014. doi:10.1007/978-1-4939-1053-3. A large number of mutants would be produced. The mutant was cloned into a linearized pET-44a vector and transformed into E. co/i, which was cultivated by using a 96-well plate in a 2×YT culture solution containing an HPPD-inhibiting herbicide (such as 1-2 μM tembotrione) and a substrate tyrosine (1 g/L) in a shaker at 28° C. and 150 rpm for 24 hours for expression, and then the mutants were rapidly screened out according to their color browning. By using the method, 10 single amino acid mutants, A103S, H141R, H141 K, H141T, A165V, V191I, R220K, G342D, D370N and K410I, were screened out. The color reaction of these resistant mutants in the presence of tembotrione and the metabolic product of benzuofucaotong relative to that of the wild type was as shown in FIG. 1.
Similarly, the color reaction of these mutants in the presence of the other three HPPD-inhibiting herbicides huanbifucaotong, topramezone and mesotrione were determined, see FIGS. 2 and 3. The resistance/tolerance of each of the mutants to the five herbicides was roughly estimated on the basis of color changes thereof and the results were shown in Table 1. The more the plus sign “+”, the deeper the color and the higher the resistance/tolerance as compared to the wild type.
HPPD-inhibiting herbicides inhibited HPPD enzymatic activity. When tyrosine was converted to 4-hydroxyphenylpyruvate (HPP) under the action of tyrosine transaminase, the inactivated HPPD was unable to oxidize 4-hydroxyphenylpyruvate into homogentisic acid (HGA). HGA was dark brown. Therefore, if an HPPD mutant was resistant to or tolerant to an herbicide, after expressed in E. coli, the mutant could also oxidize 4-hydroxyphenylpyruvate into homogentisic acid, whereby dark brown appeared. Therefore, E. coli was cultured in a 2×YT culture medium containing a HPPD-inhibiting herbicide and a substrate tyrosine using a 96-well plate to express HPPD, and these mutants were rapidly screened according to their color changes. • (1) Preparation of 2×YT culture medium (1 g/L L-Tyr, 0.1 mM IPTG, 0.01 mM MnCl2 and 100 mg/L ampicillin were added). • (2) 0.1 mL of the above medium was added to each well of a 96-well plate, and the expression clones of OsHPPD wild type or mutant (OsHPPD Mut) from the E. coli plate obtained by the above transformation were subjected to liquid culture in the 96-well plate. HPPD inhibitors having a final concentration of 1 μM-20 μM were added according to different selected agents, for example, the final concentration of tembotrione was 1.7 μM while mesotrione was 10 μM. […]

[1] = tested on: Huaidao No. 5 rice seedlings; test: Gene-edited rice seedlings (base editing / homologous replacement of HPPD gene) on medium containing tembotrione; assay type: in vivo; settings: medium containing 0.4 μM tembotrione
Procedure: The calli of Huaidao No. 5 (at least 3000 callis) were infected according to the aforesaid method for infecting rice callis with Agrobacterium. After being infected with Agrobacterium, the infected calli were transferred to a 50 mg/L hyg screening medium for screening culture. After three rounds (15 days×3) of screening, the blond calli with good growth state were picked out to differentiate in a differentiation medium, and 0.2 μM tembotrione was added during the differentiation process for screening. After for 3-4 weeks, about 1,500 seedlings with around 1 cm were obtained. As to the about 1,500 differentiated seedlings, the vast majority of which had been bleached, and only 4 seedlings remained normal green. The 4 seedlings were transplanted to a rooting medium containing 0.4 μM tembotrione and cultivated for 2 weeks, wherein two seedlings had been bleached, while the other two seedlings remained green (FIG. 14A). A small number of leaves were used to extract genomic DNA by CTAB method. PCR was carried out by using the primers oshppd54F: TTCCACCACGTCGAGCTC and Oshppd356R: […]. The amplified product was detected by 1% agarose electrophoresis and sequenced by Sanger sequencing method. […]

B1: H141R/G342D/D370N: three-site mutant rice HPPD (OsHPPD3M) (protein, listed as Oryza sativa)
chain: MPPTPTPTATTGAVSAAAAAGENAGFRLVGHRRFVRANPRSDRFQALAFHHVELWCADAASAAGRFAFALGAPLAARSDLSTGNSAHASLLLRSASVAFLFTAPYGGDHGVGADAATTASIPSFSPGAARRFAADHGLAVRAVALRVADAADAFRASVAAGARPAFQPADLGGGFGLAEVELYGDVVLRFVSHPDGADAPFLPGFEGVSNPGAVDYGLRRFDHVVGNVPELAPVAAYISGFTGFHEFAEFTAEDVGTAESGLNSVVLANNAETVLLPLNEPVHGTKRRSQIQTYLDHHGGPGVQHIALASDDVLGTLREMRARSAMGGFEFLAPPPPNYYDDVRRRAGDVLSEEQINECQELGVLVDRDNQGVLLQIFTKPVGDRPTFFLEMIQRIGCMEKDESGQEYQKGGCGGFGKGNFSELFKSIEEYEKSLEAKQAPTVQGS
modifications: The amino acid sequence of Wild-Type rice HPPD protein (OsHPPD _WT)
With B1 the “concentration of 101 required to have no significant color reaction” value (rice HPPD (OsHPPD)) was 120 µM and the “state of successfully edited seedlings” value [1] was “remain green”.
